In PMC60004 (BMC Biochemistry, 2001):

What was measured:
[1] = target: Bombyx mori aminopeptidase N, native, 115-kDa (115-120 kDa) Cry1Aa-binding receptor (Bombyx mori (endogenous in larval …)); assay: SPR
[2] = target: Bombyx mori cadherin-like receptor BtR175, native, 175 kDa (Bombyx mori (endogenous in larval …)); assay: SPR

B1: Bacillus thuringiensis Cry1Aa toxin (trypsin-activated, wild type) (domain or fragment)
chain: not shown
Work on B1 yielded a Kd [1] of 75 nM, a koff [1] of 0.0015 s⁻¹ and a kon [1] of 20000 M⁻¹ s⁻¹. For the same binder, the Kd [2] was 2.6 nM, the koff [2] was 3.3e-05 s⁻¹ and the kon [2] was 13000 ± 6.1 M⁻¹ s⁻¹.
